Experimental data: patent US20180265551A1 (GlaxoSmithKline, published 2018)

Target: the molecule itself
Assay: size exclusion chromatography and negative stain EM (self-association of trimers)

B1: gB-698 (CMV gB ectodomain residues 1-698 with fusion loop, furin site and C246S mutations, C-terminal 6-His tag) (other)
chain: VSSSSTRGTSATHSHHSSHTTSAAHSRSGSVSQRVTSSQTVSHGVNETIYNTTLKYGDVVGVNTTKYPYRVCSMAQGTDLIRFERNIVCTSMKPINEDLDEGIMVVYKRNIVAHTFKVRVYQKVLTFRRSYAYHRTTYLLGSNTEYVAPPMWEIHHINSHSQCYSSYSRVIAGTVFVAYHRDSYENKTMQLMPDDYSNTHSTRYVTVKDQWHSRGSTRLYRETSNLNCMVTITTARSKYPYHFFATSTGDVVDISPFYNGTNRNASYFGENADKFFIFPNYTIVSDFGRPNSALETHRLVAFLERADSVISWDIQDEKNVTCQLTFWEASERTIRSEAEDSYHFSSAKMTATFLSKKQEVNMSDSALDCVRDEAINKLQQIFNTSYNQTYEKYGNVSVFETTGGLVVFWQGIKQKSLVELERLANRSSLNLTHNSTKSSTDGNNATHLSNMESVHNLVYAQLQFTYDTLRGYINRALAQIAEAWCVDQRRTLEVFKELSKINPSAILSAIYNKPIAARFMGDVLGLASCVTINQTSVKVLRDMNVKESPGRCYSRPVVIFNFANSSYVQYGQLGEDNEILLGNHRTEECQLPSLKIFIAGNSAYEYVDYLFKRMIDLSSISTVDSMIALDIDPLENTDFRVLELYSQKELRSSNVFDLEEIMREFNSYKQRVKYVEHHHHHH
notes: Expressed in 293GnTI- cells; The trimer pairs into a dimeric trimer of six subunits
- binding result: binds
